Experimental data published in patent US20250197502A1 (EXELIXIS, published 2025).

Assays:
[1] = biological target: T1, Human CD47 on the cell surface (tumor cell lines; human red blood cells) (human, UniProt Q08722 19-323); assay: cell-based or functional assay
[2] = biological target: T2, Human PD-L1 on the cell surface (tumor cell lines) (human, UniProt Q9NZQ7 19-290); assay: cell-based or functional assay
[3] = biological target: T1, Human CD47 on the cell surface (tumor …); assay: cell-based or functional assay; remark: listed apart in the source
[4] = biological target: T2, Human PD-L1 on the cell surface (tumor …); assay: cell-based or functional assay; remark: listed apart in the source
[5] = biological target: T3, CD47 and PD-L1 co-expressed on the surface of tumor cells (PDL1-MDA-MB-231, NCI-H292, HT-1080) (human, UniProt Q08722 19-323; Q9NZQ7 19-290); assay: cell-based or functional assay
T3 sequence (Q08722 19-323 limits assumed, chain 1 of 2): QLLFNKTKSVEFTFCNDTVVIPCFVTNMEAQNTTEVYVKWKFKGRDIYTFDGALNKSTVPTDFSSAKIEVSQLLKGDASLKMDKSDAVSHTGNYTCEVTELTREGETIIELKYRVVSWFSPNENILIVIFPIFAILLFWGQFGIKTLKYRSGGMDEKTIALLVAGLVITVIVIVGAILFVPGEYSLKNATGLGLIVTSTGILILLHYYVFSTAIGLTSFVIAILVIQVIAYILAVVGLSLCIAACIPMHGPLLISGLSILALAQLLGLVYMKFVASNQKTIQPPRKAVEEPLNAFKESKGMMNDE
T3 sequence (Q9NZQ7 19-290 limits assumed, chain 2 of 2): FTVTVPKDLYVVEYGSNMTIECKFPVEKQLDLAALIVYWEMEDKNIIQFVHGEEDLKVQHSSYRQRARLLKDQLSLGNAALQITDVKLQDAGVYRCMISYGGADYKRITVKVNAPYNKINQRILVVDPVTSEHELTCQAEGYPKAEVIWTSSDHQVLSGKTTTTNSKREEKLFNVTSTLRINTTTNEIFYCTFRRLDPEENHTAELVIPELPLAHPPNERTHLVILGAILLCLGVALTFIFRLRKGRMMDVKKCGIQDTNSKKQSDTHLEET

[6] = biological target: T4, Human CD47, soluble His-tagged extracellular domain (AcroBiosystems Cat# CD7-H82E9) (human, UniProt Q08722 19-139); assay: Biacore (SPR); format not described
T4 construct: Bought reagent; also called biotinylated human CD47 His-Avitag; not shown: His tag / His-Avitag of the bought reagent
T4 sequence (Q08722 19-139): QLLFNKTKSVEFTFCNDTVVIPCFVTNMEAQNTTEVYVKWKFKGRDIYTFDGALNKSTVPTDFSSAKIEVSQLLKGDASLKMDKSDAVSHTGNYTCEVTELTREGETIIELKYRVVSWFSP

[7] = biological target: T5, Cynomolgus CD47, soluble His-tagged (AcroBiosystems Cat# CD7-C52H1) (cynomolgus, UniProt A0A2K5X523 19-139); assay: Biacore (SPR); format not described
T5 construct: Soluble antigen; also called Cyno CD47; cyno-CD47

[8] = biological target: T6, Human PD-L1, soluble His-tagged (AcroBiosystems Cat# PD1-H82E5) (human, UniProt Q9NZQ7 19-238); assay: Biacore (SPR); format not described
T6 construct: The Carterra reagent PD1-H82E5 is only called a soluble, His-tagged antigen; The Biacore reagent is not specified; also called PD-L1/B7-H1; not shown: His tag of the bought reagent
T6 sequence (Q9NZQ7 19-238): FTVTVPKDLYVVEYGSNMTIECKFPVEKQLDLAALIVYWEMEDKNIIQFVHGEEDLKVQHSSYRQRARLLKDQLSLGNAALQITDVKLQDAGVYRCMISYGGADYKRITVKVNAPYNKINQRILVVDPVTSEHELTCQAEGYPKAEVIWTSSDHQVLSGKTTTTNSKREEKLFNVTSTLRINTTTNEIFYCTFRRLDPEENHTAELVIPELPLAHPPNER

[9] = biological target: T7, Cynomolgus PD-L1, soluble His-tagged (AcroBiosystems Cat# PD1-C52H4) (cynomolgus, UniProt G7PSE7 19-239); assay: Biacore (SPR); format not described
T7 construct: Soluble antigen; also called Cyno PD-L1; cyno-PD-L1
T7 sequence (G7PSE7 entry or part of it): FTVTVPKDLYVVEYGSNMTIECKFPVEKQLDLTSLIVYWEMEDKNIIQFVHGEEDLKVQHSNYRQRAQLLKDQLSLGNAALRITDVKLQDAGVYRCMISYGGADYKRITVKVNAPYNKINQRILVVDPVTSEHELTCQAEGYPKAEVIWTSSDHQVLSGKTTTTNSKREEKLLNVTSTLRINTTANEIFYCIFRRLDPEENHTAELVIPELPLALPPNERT

[10] = biological target: T3, CD47 and PD-L1 co-expressed on the …; assay: flow cytometry (MFI) on HT-1080 cells endogenously expressing CD47 and PD-L1
[11] = biological target: T3, CD47 and PD-L1 co-expressed on the …; assay: flow cytometry (MFI) on NCI-H292 cells endogenously expressing CD47 and PD-L1
[12] = biological target: T4, Human CD47, soluble His-tagged …; assay: Carterra biosensor kinetics; bsAb1 coupled to HC30M chip, soluble His-tagged antigen 1.2-900 nM, global fit
Protocol: (§1) To obtain accurate kinetic constants, the bispecific antibody was prepared at concentrations ranging from 1 to 10 μg/mL in 10 mM NaOAc (pH 4.25 or pH 4.5), and the coupling reaction was performed in running buffer (25 mM MES, pH 5.5) using multiple chip locations for each concentration. In the next association step, the binding interaction of antigen to the coupled antibody was measured. In general, each binding event consisted of a one minute baseline interval followed by a 5 minute antigen injection and a 15 minute dissociation with HBSTE buffer (10 mM HEPES, 150 mM NaCl, 3 mM EDTA, 0.01% Tween-20, pH 7.4) as running buffer. […] Antigens for binding studies were then prepared by reconstituting according to manufacturer recommendation. To obtain accurate kinetic constants, the reconstituted antigens were subsequently diluted into HBSTE buffer to final concentrations ranging from 1.2 nM to 900 nM. Injections of the antigens at each concentration were performed in series. In the next dissociation step, a regeneration process consisting of three times of injection for 25 seconds with 0.1 M glycine (pH 2.8), 1 M NaCl was performed between each antigen binding event, by which the bound antigen on the surface of the chip was allowed to dissociate. Carterra Kinetics analysis package was used to calculate rate constants (kₐ, kd) and corresponding equilibrium dissociation constants (Kd). Binding data were first recovered by double-referencing to subtract the closest reference cell and blank injection.

[13] = biological target: T5, Cynomolgus CD47, soluble His-tagged …; assay: as above
Protocol: as §1

[14] = biological target: T6, Human PD-L1, soluble His-tagged …; assay: as above
Protocol: as §1

[15] = biological target: T7, Cynomolgus PD-L1, soluble His-tagged …; assay: as above
Protocol: as §1

[16] = biological target: T3, CD47 and PD-L1 co-expressed on the …; assay: flow cytometry, MFI on NCI-H292 tumor cells mixed with human RBC (tumor cells labelled with CellTrace Violet)
[17] = biological target: T3, CD47 and PD-L1 co-expressed on the …; assay: flow cytometry (MFI) on PDL1-MDA-MB-231 cells co-expressing CD47 and PD-L1; PDL1-MDA-MB-231 cells carrying both CD47 (~500,000) and PD-L1 (~1,500,000)
[18] = biological target: T4, Human CD47, soluble His-tagged …; assay: phage display selection and phage ELISA on biotinylated human CD47 extracellular domain
[19] = biological target: T6, Human PD-L1, soluble His-tagged …; assay: phage display selection and phage ELISA on biotinylated human PD-L1 extracellular domain, then affinity maturation

T1 sequence (Q08722 19-323 limits assumed): as the sequence (Q08722 19-323 limits assumed, chain 1 of 2) above
T2 sequence (Q9NZQ7 19-290 limits assumed): as the sequence (Q9NZQ7 19-290 limits assumed, chain 2 of 2) above

B1: bsAb1 (mAb-C x mAb-P in an exemplary format; bispecific anti-CD47 x anti-PD-L1 antibody of four polypeptide chains) (bispecific antibody)
chain 1: not shown
chain 2: EVQLVESGGGLVQPGGSLRLSCAASGFTFSWYYIHWVRQAPGKGLEWVAYIDSSSGYTEYADSVKGRFTISADTSKNTAYLQMNSLRAEDTAVYYCARGGYLGMDYWGQGTLVTVSSAQPREPQVYTLPPCRDWLTKNQVSLTCLVKGFYPSDIAVEWESNGQPENNYKTTPPVLDSDGSFFLYSKLTVDKSRWQQGNVFSCSVMHEALHNHYTQKSLSLSPGK
chain 3: not shown
chain 4: EVQLVESGGGLVQPGGSLRLSCAASGFTFRSYYIHWVRQAPGKGLEWVATISSYGVFTYYADSVKGRFTISADTSKNTAYLQMNSLRAEDTAVYYCARGTTLTPVLDYWGQGTLVTVSSASTKGPSVFPLAPSSKSTSGGTAALGCLVKDYFPEPVTVSWNSGALTSGVHTFPAVLQSSGLYSLSSVVTVPSSSLGTQTYICNVNHKPSNTKVDKKVEPKSC
notes: Chains 1+2 form the CD47 arm (mAb-C), chains 3+4 the PD-L1 arm (mAb-P); also called the selected bispecific antibody
For B1, the “EC50 of inhibiting CD47/SIRPα signaling in PDL1-MDA-MB-231 cells (PathHunter chemiluminescent signal)” value [1] was 0.076 nM, the “EC50 of inhibiting PD-1/PD-L1 interaction in PDL1-MDA-MB-231 cells (PathHunter chemiluminescent signal)” value [2] was 0.22 nM and the “IC50, CD47/SIRPa block (PathHunter CD47/SIRPα signaling bioassay)” value [3] was 0.8 nM. For the same binder, the “IC50, PD-L1/PD-1 block (PathHunter PD-1/PD-L1 signaling bioassay)” value [4] was 0.5 nM, the “ADCP (phagocytosis of NCI-H292 cells) EC50” value [5] was 0.2 nM and the Kd [6] was 21 nM. It also gave a koff [6] of 0.0141 s⁻¹, a Kd [7] of 25 nM and a koff [7] of 0.0137 s⁻¹. The Kd [8] was 0.05 nM, the koff [8] was 0.000164 s⁻¹ and the Kd [9] was 0.034 nM. For the same binder, the koff [9] was 0.00012 s⁻¹, the EC50 [10] was 0.2 nM and the EC50 [11] was 0.7 nM. For the same binder, the Kd [12] was 27 nM, the koff [12] was 0.0093 s⁻¹ and the kon [12] was 350000 M⁻¹ s⁻¹. For the same binder, the Kd [13] was 24 nM, the koff [13] was 0.0046 s⁻¹ and the kon [13] was 190000 M⁻¹ s⁻¹. The Kd [14] was 0.15 nM, the koff [14] was 0.00013 s⁻¹ and the kon [14] was 980000 M⁻¹ s⁻¹. For the same binder, the Kd [15] was 0.18 nM, the koff [15] was 0.00015 s⁻¹ and the kon [15] was 890000 M⁻¹ s⁻¹. For the same binder, the “EC50 (read off the curve)” value [16] was ~0.7 nM and the EC50 [17] was 0.22 nM.

B2: Antibody mAb-C (selected CD47 binding antibody) (antibody, IgG1, V domains shown)
VH: EVQLVESGGGLVQPGGSLRLSCAASGFTFSWYYIHWVRQAPGKGLEWVAYIDSSSGYTEYADSVKGRFTISADTSKNTAYLQMNSLRAEDTAVYYCARGGYLGMDYWGQGTLVTVSS
VL: DIQMTQSPSSLSASVGDRVTITCRASQSVSSAVAWYQQKPGKAPKLLIYSASSLYSGVPSRFSGSRSGTDFTLTISSLQPEDFATYYCQQSRSRPRTFGQGTKVEIK
notes: Selected as a Fab on phage
B2: binds [18].

B3: Antibody mAb-P (selected and then affinity matured PD-L1 binding antibody) (antibody, human IgG1, V domains shown)
VH: EVQLVESGGGLVQPGGSLRLSCAASGFTFRSYYIHWVRQAPGKGLEWVATISSYGVFTYYADSVKGRFTISADTSKNTAYLQMNSLRAEDTAVYYCARGTTLTPVLDYWGQGTLVTVSS
VL: DIQMTQSPSSLSASVGDRVTITCRASQSVSSAVAWYQQKPGKAPKLLIYSASSLSSGVPSRFSGSRSGTDFTLTISSLQPEDFATYYCQQFGAEPITFGQGTKVEIK
B3: binds [19].
